# From the supplement of paper PMC10567573
# B1: SCNN1D (parent)
# chain: FLGHHSFSVRPGTEATISIREDEV
# B2: CLK3 (parent)
# chain: FGEDYYGPSRSRHRRRSRERGPYR
# Variants of: B1
# Assay: protein stability index of a GFP-peptide fusion (GPS, HEK-293T) (PSI 1-6); higher = more stable
# Details: c terminus: a fixed tail appended
# 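Note: lentivirally expressed fusions sorted by FACS into six bins by GFP to DsRed ratio, PSI derived from sequencing read proportions per bin multiplied by bin number.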
row,Variant,protein stability index
1,FLGHHSFSVRPGTEATISIFEDEV,3.02
2,FLGHHSFSVRPGTEATISIPEDEV,1.79
3,FLGHHSFSVRPGTEATISIMEDEV,1.5
4,FLGHHSFSVRPGTEATISIDEDEV,1.9
5,FLGHHSFSVRPGTFATISIREDEV,1.37
6,FLGHHSFSVRPGTMATISIREDEV,1.25
7,FLGHHSFSVRPGTPATISIREDEV,1.76
8,FLGHHSFSVRPGTRATISIREDEV,2.1
9,FLEHHSFSVRPGTEATISIREDEV,2.58
10,FLMHHSFSVRPGTEATISIREDEV,1.42
11,FLGHHSFSVTPGTEATISIREDEV,1.92
12,FLGHHSFSVKPGTEATISIREDEV,2.33
13,FLGHHSFSVEPGTEATISIREDEV,2.94
14,FLGHHSFSVCPGTEATISIREDEV,2.52
15,FLGHHSFSVNPGTEATISIREDEV,1.53
16,FLGHHSFSVGPGTEATISIREDEV,2.04
17,KLGHHSFSVRPGTEATISIREDEV,4.3
18,HLGHHSFSVRPGTEATISIREDEV,4.49
19,DLGHHSFSVRPGTEATISIREDEV,4.78
20,PLGHHSFSVRPGTEATISIREDEV,4.64
21,FLGHHSFSVRPGTEATISEREDEV,1.71
22,FLGHHSFSVRPGTEATISPREDEV,1.89
23,FLGHHSFSVRPGTEATISIREDWV,3.12
24,FLGHHSFSVRPGTEATISIREDFV,2.45
25,FLGHSSFSVRPGTEATISIREDEV,1.75

row,Variant,protein stability index
1,FLGHYSFSVRPGTEATISIREDEV,1.89
2,FLGHHSFSVRPGTEATISIREDEK,1.93
3,FLGHHSFSVRPGTEATISIREDET,1.66
4,FLGHHSFSVRPGTEATISIREDEG,1.9
5,FLGHHSFSVRPGTEATISIRVDEV,3.42
6,FLGHHSFSVRPGTEATISIRQDEV,1.74
7,FLGHHSFSVRPGTEATISIRRDEV,2.6
8,FLGHHSFSVRPGTEATISIRTDEV,2.55
9,FLGHHSFSVRPGQEATISIREDEV,1.97
10,FLGHHSFSVRPGEEATISIREDEV,2.09
11,FLGHHSFSVRPGCEATISIREDEV,1.58
12,FLGHHSFSVRPGYEATISIREDEV,1.36
13,FLGHHSFSVRPGTEATIKIREDEV,1.67
14,FLGHHSFSARPGTEATISIREDEV,2.36
15,FLGHHSDSVRPGTEATISIREDEV,4.41
16,FLGHHSFSVRPGTEASISIREDEV,2.57
17,FLGHHSFSVRPGTEAHISIREDEV,1.87
18,FLGHHSFTVRPGTEATISIREDEV,1.62
19,FLGHHSFFVRPGTEATISIREDEV,1.37
20,FLGHHSFAVRPGTEATISIREDEV,3.59
21,FLGHHSFMVRPGTEATISIREDEV,1.75
22,FLGHHSFLVRPGTEATISIREDEV,1.65
23,FLGHHAFSVRPGTEATISIREDEV,3.88
24,FLGHHPFSVRPGTEATISIREDEV,1.46
25,FLGHHGFSVRPGTEATISIREDEV,1.16

row,Variant,protein stability index
1,FLGHHSFSVRHGTEATISIREDEV,1.7
2,FLGHHSFSVRAGTEATISIREDEV,1.53
3,FLGHHSFSVRMGTEATISIREDEV,1.25
4,FLGHHSFSVRGGTEATISIREDEV,1.64
5,FLGHHSFSVRLGTEATISIREDEV,1.82
6,FLGHHSFSVRPGTEATISIREAEV,1.89
7,FLGHHSFSVRPGTEATISIREREV,2.4
8,FLGHHSFSVRPGTEATISIRECEV,2.21
9,FLGHHSFSVRPGTEATISIRESEV,1.35
10,FLGHHSFSVRPGTEATISIREYEV,3.14
11,FDGHHSFSVRPGTEATISIREDEV,5.03
12,FRGHHSFSVRPGTEATISIREDEV,4.48
13,FNGHHSFSVRPGTEATISIREDEV,3.15
14,FCGHHSFSVRPGTEATISIREDEV,2.18
15,FLGHHSFSVRPGTEWTISIREDEV,3.05
16,FLGHHSFSVRPGTEETISIREDEV,1.93
17,FLGHHSFSVRPGTEHTISIREDEV,1.67
18,FLGHHSFSVRPPTEATISIREDEV,1.83
19,FLGHHSFSVRPCTEATISIREDEV,2.24
20,FLGHHSFSVRPRTEATISIREDEV,1.46
21,FLGHHSFSVRPQTEATISIREDEV,1.56
22,FLGHHSFSVRPHTEATISIREDEV,1.81
23,FLGGHSFSVRPGTEATISIREDEV,2.2
24,FLGHHSFSVRPGTEATSSIREDEV,1.66
25,FLGHHSFSVRPGTEATPSIREDEV,2.19

# Variants of: B2
# Assay: as above
# Details: c terminus: a fixed tail appended
row,Variant,protein stability index
1,FGEDYYGPSRSRHRRRSRERPPYR,2.95
2,FGEDYYGPSRSRHRRRSRERLPYR,2.91
3,FGEDYYGPSRSRHRRRSREREPYR,2.11
4,FGEDYYGPSRSRHRRRSRERFPYR,3.47
5,FGEDYYGPSRSRHRRRSRERMPYR,3.38
6,FGEDYYGPSRSRHRRRSRERIPYR,2.93
7,FGEDYYGPSRSRHRRRSRERWPYR,4.06
8,FGEDYYGPSRSRHRRRSRERKPYR,3.15
9,FGEDYYGPSRSRHRRRSRERQPYR,2.8
10,FGEDYYGPSRSRHRRRSRERYPYR,3.37
11,FGEDYYGPSRSRHRRRSRERNPYR,2.33
12,FGEDYYGPSRSRHRRRSRERTPYR,2.53
13,FGEDYYGPSRSRHRRRSRERVPYR,2.39
14,FGEDYYGPSRSRHRRRSRERHPYR,3.13
15,FGEDYYGPSRSRHRRRSRERAPYR,2.69
16,FGEDYYGPSRSRHRRRSRERRPYR,3.2
17,FGEDYYGPSRSRHRRRSRERDPYR,2.47
18,FGEDYYGPSRSRHRRRSRERSPYR,1.41
19,FGEDYYGPSRSRHRRRSRERCPYR,3.2
20,FGEDYYGPSRSRHRRRSRERGPYF,2.8
21,FGEDYYGPSRSRHRRRSRERGPYH,2.67
22,FGEDYYGPSRSRHRRRSRERGPYD,1.9
23,FGEDYYGPSRSRHRRRSRERGPYL,1.96

row,Variant,protein stability index
1,FGEDYYGPSRSRHRRRSRERGPYC,1.92
2,FGEDYYGPSRSRHRRRSRERGPYM,2.85
3,FGEDYYGPSRSRHRRRSRERGPYY,2.35
4,FGEDYYGPSRSRHRRRSRERGPYW,2.18
5,FGEDYYGPSRSRHRRRSRERGPYV,2.46
6,FGEDYYGPSRSRHRRRSRERGPYK,2.62
7,FGEDYYGPSRSRHRRRSRERGPYG,3.26
8,FGEDYYGPSRSRHRRRSRERGPYP,3.48
9,FGEDYYGPSRSRHRRRSRERGPYT,1.81
10,FGEDYYGPSRSRHRRRSRERGPYA,2.02
11,FGEDYYGPSRSRHRRRSRERGPYN,2.46
12,FGEDYYGPSRSRHRRRSRERGPYQ,2.14
13,FGEDYYGPSRSRHRRRSRERGPYI,2.68
14,FGEDYYGPSRSRHRRRSRERGPYE,2.32
15,FGEDYYGPSRSRHRRRSRERGPYS,2.46
16,FGEDYYGPSRSRHRRRSRERGPSR,2.62
17,FGEDYYGPSRSRHRRRSRERGPMR,2.48
18,FGEDYYGPSRSRHRRRSRERGPWR,2.46
19,FGEDYYGPSRSRHRRRSRERGPQR,3.46
20,FGEDYYGPSRSRHRRRSRERGPFR,1.65
21,FGEDYYGPSRSRHRRRSRERGPGR,2.43
22,FGEDYYGPSRSRHRRRSRERGPIR,2.31
23,FGEDYYGPSRSRHRRRSRERGPDR,2.89

row,Variant,protein stability index
1,FGEDYYGPSRSRHRRRSRERGPLR,2.16
2,FGEDYYGPSRSRHRRRSRERGPKR,2.3
3,FGEDYYGPSRSRHRRRSRERGPAR,2.19
4,FGEDYYGPSRSRHRRRSRERGPER,2.35
5,FGEDYYGPSRSRHRRRSRERGPNR,2.67
6,FGEDYYGPSRSRHRRRSRERGPTR,2.27
7,FGEDYYGPSRSRHRRRSRERGPCR,2.47
8,FGEDYYGPSRSRHRRRSRERGPPR,2.61
9,FGEDYYGPSRSRHRRRSRERGPVR,3.15
10,FGEDYYGPSRSRHRRRSRERGPRR,2.11
11,FGEDYYGPSRSRHRRRSRERGPHR,2.38
12,FGEDYYGPSRSRHRRRSRPRGPYR,4.39
13,FGEDYYGPSRSRHRRRSRSRGPYR,3.65
14,FGEDYYGPSRSRHRRRSRGRGPYR,4.06
15,FGEDYYGPSRSRHRRRSRWRGPYR,4.71
16,FGEDYYGPSRSRHRRRSRFRGPYR,4.17
17,FGEDYYGPSRSRHRRRSRKRGPYR,4.05
18,FGEDYYGPSRSRHRRRSRTRGPYR,3.81
19,FGEDYYGPSRSRHRRRSRLRGPYR,3.42
20,FGEDYYGPSRSRHRRRSRNRGPYR,3.95
21,FGEDYYGPSRSRHRRRSRMRGPYR,4.15
22,FGEDYYGPSRSRHRRRSRQRGPYR,3.2
23,FGEDYYGPSRSRHRRRSRYRGPYR,3.94

row,Variant,protein stability index
1,FGEDYYGPSRSRHRRRSRDRGPYR,3.87
2,FGEDYYGPSRSRHRRRSRCRGPYR,4.35
3,FGEDYYGPSRSRHRRRSRIRGPYR,3.96
4,FGEDYYGPSRSRHRRRSRHRGPYR,4.09
5,FGEDYYGPSRSRHRRRSRRRGPYR,4.55
6,FGEDYYGPSRSRHRRRSRVRGPYR,4.11
7,FGEDYYGPSRSRHRRRSRERGHYR,2.65
8,FGEDYYGPSRSRHRRRSRERGIYR,2.2
9,FGEDYYGPSRSRHRRRSRERGCYR,2.8
10,FGEDYYGPSRSRHRRRSRERGRYR,1.97
11,FGEDYYGPSRSRHRRRSRERGTYR,2.82
12,FGEDYYGPSRSRHRRRSRERGQYR,2.65
13,FGEDYYGPSRSRHRRRSRERGLYR,2.37
14,FGEDYYGPSRSRHRRRSRERGFYR,2.62
15,FGEDYYGPSRSRHRRRSRERGDYR,2.8
16,FGEDYYGPSRSRHRRRSRERGVYR,3.03
17,FGEDYYGPSRSRHRRRSRERGSYR,2.21
18,FGEDYYGPSRSRHRRRSRERGKYR,2.19
19,FGEDYYGPSRSRHRRRSRERGYYR,2.39
20,FGEDYYGPSRSRHRRRSRERGWYR,3.26
21,FGEDYYGPSRSRHRRRSRERGNYR,2.54
22,FGEDYYGPSRSRHRRRSRERGEYR,2.05
23,FGEDYYGPSRSRHRRRSRERGMYR,2.54

row,Variant,protein stability index
1,FGEDYYGPSRSRHRRRSRERGAYR,2.82
2,FGEDYYGPSRSRHRRRSRERGGYR,2.54
3,FGEDYYGPSRSRHRRRSREPGPYR,2.65
4,FGEDYYGPSRSRHRRRSREFGPYR,3.04
5,FGEDYYGPSRSRHRRRSREWGPYR,2.85
6,FGEDYYGPSRSRHRRRSRENGPYR,2.11
7,FGEDYYGPSRSRHRRRSREHGPYR,2.44
8,FGEDYYGPSRSRHRRRSRECGPYR,2.72
9,FGEDYYGPSRSRHRRRSREQGPYR,2.79
10,FGEDYYGPSRSRHRRRSRELGPYR,2.45
11,FGEDYYGPSRSRHRRRSREYGPYR,2.3
12,FGEDYYGPSRSRHRRRSREGGPYR,2.21
13,FGEDYYGPSRSRHRRRSRETGPYR,2.39
14,FGEDYYGPSRSRHRRRSREIGPYR,2.21
15,FGEDYYGPSRSRHRRRSREAGPYR,2.47
16,FGEDYYGPSRSRHRRRSREDGPYR,2.56
17,FGEDYYGPSRSRHRRRSRESGPYR,2.24
18,FGEDYYGPSRSRHRRRSREVGPYR,2.22
19,FGEDYYGPSRSRHRRRSREMGPYR,2.3
20,FGEDYYGPSRSRHRRRSREEGPYR,2.27
21,FGEDYYGPSRSRHRRRSREKGPYR,2.62
